Each block holds one compound with its values, some of them ahead of it. Where a SMILES comes first, the peptide text is derived from it. Where no end group is shown, it is not given here.
Assays:
LDHA (pTyr10-LDHA) = target: T1, LDHA (pTyr10-LDHA) (Homo sapiens, UniProt P00338); assay: LDHA activity in cells by pTyr10-LDHA immunoblot; type: cell-based
T1 construct: a panel of cancer cell lines were immunoblotted to observe levels of endogenous FLCN and pTyr10-LDHA; endogenous in cells; host or cells: Caki-1, HEK293, PC3, A549 and other human cancer cell lines
Description: The supernatant was then transferred to a fresh microtube.

ccRCC cell lines = assay: Apoptosis / cell death in ccRCC renal cell lines (cleaved PARP/caspase-3 immunoblot, Annexin V/propidium iodide flow cytometry); type: cell-based, human; settings: Caki-1 cells, Western blot, normalized for amount of peptide residing in cells
LDHA [1] = target: T2, LDHA (Homo sapiens, UniProt P00338); assay: Fluorescence anisotropy binding of Rhodamine-B-labeled FLCN peptides to recombinant LDHA
T2 construct: a complex of FLCN-10 peptide with full-length recombinant LDHA; 6xHis (leader of vector pRSET-A) (N); made in house; host or cells: E. coli BL21 (DE3)
Method: LDHA at the indicated concentrations was incubated on ice in 50 mM Tris pH 7.2, 150 mM NaCl, 1 mM TCEP, 4 mM MgCl2 with […] labelled FLCN peptide for 30 min.
Fluorescence anisotropy was measured using a SpectraMax 3 equipped with rhodamine fluorescence polarization module (lex\lem.535 nm/595 nm). Curve fitting was done in KaleidaGraph 4.0.
LDHA at the indicated concentrations was incubated on ice in 50 mM Tris pH 7.2, 150 mM NaCl, 1 mM TCEP, 4 mM MgCl2 with […] Rhodamine-B-labeled FLCN peptide for 30 min. Fluorescence anisotropy was measured in triplicate using a SpectraMax i3 equipped with rhodamine fluorescence polarization module (lex\lem.535 nm/595 nm). Curve fitting was done in KaleidaGraph 4.0.

LDHA [2] = target: T2, LDHA; assay: LDH activity assay (MAK066) with recombinant LDHA; type: biochemical; settings: 25 ng recombinant LDHA pre-incubated with peptide 30 min on ice
Method: Lactate dehydrogenase activity was measured according to the manufacturer's protocol (MAK066, Sigma-Aldrich). […] Samples were then transferred to an optically clear 96-well plate and substrate mix was added to each well. Absorbance was measured at 450 nm every five minutes until saturation. […] All experiments were carried out in triplicate.
Lactate dehydrogenase activity was measured according to the manufacturer's protocol (MAK066, Sigma-Aldrich). […] Samples were then transferred to an optically clear 96-well plate and substrate mix was added to each well. Absorbance was measured at 450 nm every five min until saturation.

[3] = system: renal tumor tissue and adjacent normal kidney-tissue from a BHD patient; assay: Ex vivo peptide treatment of BHD patient renal tumor and adjacent normal tissue; parameters: species or system human; settings: FLCN-10-Rhodamine B, 2 h at 37° C., fluorescence microscopy
Method: Tumor tissues from the BHD patient were obtained with written informed consent from the Department of Urology at SUNY (State University of New York) Upstate Medical University. At the time of partial nephrectomy, which was done with <15 min of renal ischemia, BHD tumors were dissected into 3-5 mm^3 pieces and cultured on a presoaked gelatin sponge (Johnson & Johnson) in 24-well plates containing 2 ml RPMI-1640 with 10% FBS, antibiotic/antimycotic solution. Tissues were cultured at 37° C. for 16 hr, followed by the addition of the indicated concentrations of FLCN-10-Rhod-B and further incubation at 37° C. for 2 hr.
Tumor and adjacent normal renal tissue from the BHD patient were obtained with written informed consent on an Institutional Review Board (IRB)-approved protocol from the Department of Urology at SUNY Upstate Medical University. At the time of partial nephrectomy, which was done with <15 min of renal ischemia, BHD tumors were dissected into 3- to 5-mm^3 pieces and cultured on a presoaked gelatin sponge (Johnson & Johnson) in 24-well plates containing 2 ml RPMI-1640 with 10% FBS and antibiotic/antimycotic solution. Tissues were cultured at 37° C. for 16 h, followed by the addition of the indicated concentrations of FLCN-10-Rhod-B and further incubation at 37° C. for 2 h. […]

activity against LDHA in Caki-1 cells (LDHA (pTyr10-LDHA)): effective at inhibiting LDHA activity
Compound: PEGylated FLCN-10: FLCN-10 peptide modified by PEGylation to protect from cellular proteases (AQRMNTAFTP; also: PEGylated, site not given here)
pro-apoptotic activity of modified FLCN-10 peptides (ccRCC cell lines): minimal pro-apoptotic activity

binding to LDHA (in words) (LDHA [1]; determined by anisotropy): bound tightly to LDHA | Ka of LDHA with FLCN peptide (LDHA [1]; fluorescence polarization anisotropy, n=3): ≈ 1×10^7
Compound: QRMNTAFTPFL [FLCN-1, peptide derived from aa220-230 of FLCN]

inhibitory effect on LDHA activity (LDHA [2]): 70%
Compound: CSCC[C@H](NC(=O)[C@H](CCCNC(=N)N)NC(=O)[C@H](CCC(N)=O)NC(=O)[C@H](C)N)C(=O)N[C@@H](CC(N)=O)C(=O)N[C@H](C(=O)N[C@@H](C)C(=O)N[C@@H](Cc1ccccc1)C(=O)N[C@H](C(=O)N1CCC[C@H]1C(=O)O)[C@@H](C)O)[C@@H](C)O [FLCN-10] (H-AQRMNTAFTP-OH; N-terminus and C-terminus assumed)
tissue penetration ex vivo [3]: able to penetrate both normal and tumor tissues
